The Kd is the concentration at which binding is half-saturated.

Common to all, as to test: BLI (Fortebio)
In general terms: In BLI a coated tip is dipped into the sample, and binding shifts an interference pattern.

In one assay the target is T1, IL-2Rα(CD25) (UniProt P01589 22-213, limits assumed).
T1 construct: also called IL-2α
T1 sequence (looked up): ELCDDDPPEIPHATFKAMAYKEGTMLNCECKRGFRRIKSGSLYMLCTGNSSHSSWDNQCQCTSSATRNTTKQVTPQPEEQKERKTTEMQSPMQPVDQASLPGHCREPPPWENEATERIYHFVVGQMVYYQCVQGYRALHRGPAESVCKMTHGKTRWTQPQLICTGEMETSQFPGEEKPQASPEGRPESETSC
The method, then: (§1) The affinity between IL-2 mutants and their receptors was detected by Bio-Layer Interferometry (BLI).
(§2) Receptor solution: IL-2Rα(CD25), IL-2Rβ(CD122) and IL-2Rβ/γ receptor samples were diluted to 15-20 μg/mL with 1×Kinetics buffer, mixed and stored in a dark place.
(§3) Samples were added to the sample wells according to the protocol design, and 200 μL of reagent or sample was added to each well.

A further assay addresses T2, IL-2Rβ(CD122) (UniProt P14784 27-239, limits assumed).
T2 construct: also called IL-2β
T2 sequence (looked up): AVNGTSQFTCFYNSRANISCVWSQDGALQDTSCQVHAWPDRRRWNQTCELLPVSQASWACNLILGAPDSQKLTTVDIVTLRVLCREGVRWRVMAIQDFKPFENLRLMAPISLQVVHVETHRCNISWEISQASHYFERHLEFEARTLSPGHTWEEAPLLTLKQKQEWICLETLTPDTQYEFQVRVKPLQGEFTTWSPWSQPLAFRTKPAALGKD
As to the method:
as §1, §2, §3

A further assay concerns the target T3, IL-2Rβ/γ receptor (UniProt P14784 27-239; P31785 23-262, limits assumed).
T3 sequence (looked up) 1: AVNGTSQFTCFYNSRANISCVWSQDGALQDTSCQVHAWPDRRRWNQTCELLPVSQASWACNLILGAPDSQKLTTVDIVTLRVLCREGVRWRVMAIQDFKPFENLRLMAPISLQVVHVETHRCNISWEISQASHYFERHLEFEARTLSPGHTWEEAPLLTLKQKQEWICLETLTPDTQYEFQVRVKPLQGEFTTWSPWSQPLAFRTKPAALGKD
T3 sequence (looked up) 2: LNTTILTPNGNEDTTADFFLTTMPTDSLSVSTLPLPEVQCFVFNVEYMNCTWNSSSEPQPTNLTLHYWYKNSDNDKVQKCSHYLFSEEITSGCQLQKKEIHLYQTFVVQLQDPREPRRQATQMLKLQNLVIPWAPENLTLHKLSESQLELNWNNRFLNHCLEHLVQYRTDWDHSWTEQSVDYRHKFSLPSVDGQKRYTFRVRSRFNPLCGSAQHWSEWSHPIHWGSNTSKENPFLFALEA
The method, then: as §1, §2, §3

B1: IL-2 mutant G438P19 (ligand)
chain: PTSSSTRKTQLQLEHLMSDLQMILNGINNYKNPKLTRMLTFKFYMPWKATELKHLQCLEEELKPLEEVLNLAQSKNFHLRPRDLISNINVIVLELKGSETTFMCEYADETATIVEFLNRWITFSQSSSQH
notes: Printed: lack of the first amino acid A, K8R/L18M/L19S/K48W/A125S, IISTLT from position 128 mutated to SSQH; also called GP19
Turning to B1, the results for the Kd with IL-2Rα(CD25) and with IL-2Rβ(CD122) were 38.6 nM and 12.9 nM, respectively.

B2: IL-2 mutant G438 (ligand)
chain: APTSSSTRKTQLQLEHLLLDLQMILNGINNYKNPKLTRMLTFKFYMPWKATELKHLQCLEEELKPLEEVLNLAQSKNFHLRPRDLISNINVIVLELKGSETTFMCEYADETATIVEFLNRWITFAQSIISTLT
With B2, the Kd is 13.4 nM with IL-2Rα(CD25) and 15.3 nM in the assay with IL-2Rβ(CD122).

B3: IL-2 mutant G438P12 (ligand)
chain: APTSSSTRKTQLQLEHLMSDLQMILNGINNYKNPKLTRMLTFKFYMPRKATELKHLQCLEEELKPLEEVLNLAQSKNFHLRPRDLISNINVIVLELKGSETTFMCEYADETATIVEFLNRWITFAQSIISTLT
Regarding B3, the Kd with IL-2Rα(CD25) was determined as 8.48 nM; in the assay with IL-2Rβ(CD122) it was 7.29 nM.

B4: IL-2 mutant G438P14 (ligand)
chain: APTSSSTRKTQLQLEHLMSDLQMILNGINNYKNPKLTEMLEFKFYMPWKATELKHLQCLEEELKPLEEVLNLAQSKNFHLRPRDLISNINVIVLELKGSETTFMCEYADETATIVEFLNRWITFAQSIISTLT
notes: also called GP14
In the case of B4, the values for the Kd with IL-2Rβ/γ receptor and with IL-2Rβ(CD122) were 39.6 nM and 42600 nM, respectively. Also, the binding result in the assay with IL-2Rα(CD25) is reported as “no binding”.

B5: IL-2 mutant G493 (ligand)
chain: APTSSSTRKTQLQLEHLLLDLQMILNGINNYKNPKLTRMLTFWFYMPWKATELWHLQCLEEELHPLEEVLNLAQSKNFHLRPRDLISNINVIVLELEGSETTFMCEYADETATIVEFLNRWITFAQSIISTLT
Turning to B5, the binding result in the assay with IL-2Rα(CD25) and with IL-2Rβ(CD122) was “no binding” in each case.

B6: IL-2 mutant G438P2 (ligand)
chain: APTSSSTRKTQLQLEHLLLDLQMILNGINNYKNPELTRMLTFDFYMPWKATELKHLQCLEEELKPLEEVLNLAQSKNFHLRPRDLISNINVIVLELKGSETTFMCEYADETATIVEFLNRWITFAQSIISTLT
notes: also called GP2
Consider B6, for which the results for the Kd in the assay with IL-2Rα(CD25) and with IL-2Rβ(CD122) were 68.9 nM and 18.3 nM, respectively.

B7: IL-2 mutant G496 (ligand)
chain: APTSSSTRKTQLQLEHLLLDLQMILNGINNYKNPKLTRMLTFWFYMPWKATELWHLQCLEEELHPLEEVLNLAQSKNFHLRPRDLISNINVIVLELRGSETTFMCEYADETATIVEFLNRWITFAQSIISTLT
As to B7, the binding result with IL-2Rα(CD25) and with IL-2Rβ(CD122) was “no binding” throughout.

B8: IL-2 mutant G438P9 (ligand)
chain: APTSSSTRKTQLQLEHLMSDLQMILNGINNYKNPKLTRMLTAKFYMPWKATELKHLQCLEEELKPLEEVLNLAQSKNFHLRPRDLISNINVIVLELKGSETTFMCEYADETATIVEFLNRWITFAQSIISTLT
notes: also called GP9
For the molecule B8, the Kd is 34.7 nM in the assay with IL-2Rα(CD25) and 26.4 nM in the assay with IL-2Rβ(CD122).

B9: IL-2 mutant G438P10 (ligand)
chain: APTSSSTRKTQLQLEHLMSDLQMILNGINNYKNPKLTRMLTFKFYMPWKATELKHLQCLEEELKPLEEVLNLAQSKNFELDPRDLISNINVIVLELKGSETTFMCEYADETATIVEFLNRWITFAQSIISTLT
notes: also called GP10
As to B9, the Kd with IL-2Rα(CD25) turned out to be 36.1 nM; with IL-2Rβ(CD122), 30.5 nM.

B10: IL-2 mutant G438P16 (ligand)
chain: APTSSSTRKTQLQLEHLMSDLQMILNGINNYKNPKLTEMLEFKFYMPWKATELKHLQCLEEELKPLEEVLNLAQSKNFHLRARDLIDNINVIVLELKGSETTFMCEYADETATIVEFLNRWITFAQSIISTLT
notes: also called GP16
Take B10: the Kd with IL-2Rα(CD25) worked out at 353 nM; in the assay with IL-2Rβ(CD122) it was 142 nM.

B11: IL-2 mutant G438P8 (ligand)
chain: APTSSSTRKTQLQLEHLLLDLQMILNGINNYKNPKLTRMLTFKFYMPWKATELKHLQCLEEELKPLEEVLNFAQSKNFHLDPRDLISNINVIVLELKGSETTFMCEYADETATIVEFLNRWITFAQSIISTLT
notes: also called GP8
With B11, the values for the Kd with IL-2Rβ/γ receptor, with IL-2Rα(CD25) and with IL-2Rβ(CD122) were 32.7 nM, 131 nM and 12 nM, respectively.

B12: IL-2 mutant G498 (ligand)
chain: APTSSSTRKTQLQLEHLLLDLQMILNGINNYKNPKLTRMLTFWFYMPWKATELWHLQCLEEELHPLEEVLNLAQSKNFHLRPRDLISNINVIVLELFGSETTFMCEYADETATIVEFLNRWITFAQSIISTLT
Take B12: the binding result in the assay with IL-2Rα(CD25) and with IL-2Rβ(CD122) was “no binding” in each case.

B13: IL-2 mutant G438P3 (ligand)
chain: APTSSSTRKTQLQLEHLLLDLQMILNCINNYKNPKLTRMLTFKFYMPWKATELKHLQCLEEELKPLEEVLNLAQSKNCHLRPRDLISNINVIVLELKGSETTFMCEYADETATIVEFLNRWITFAQSIISTLT
notes: also called GP3
Consider B13, for which the figures for the Kd with IL-2Rα(CD25) and with IL-2Rβ(CD122) were 26.4 nM and 12.1 nM, respectively.

B14: IL-2 mutant G438P6 (ligand)
chain: APTSSSTRKTQLQLEHLLLDLQMILNGINNYKNPKLTRMLTADFYMPWKATELKHLQCLEEELKPLEEVLNLAQSKNFHLRPRDLISNINVIVLELKGSETTFMCEYADETATIVEFLNRWITFAQSIISTLT
notes: also called GP6
With B14, the Kd worked out at 119 nM with IL-2Rα(CD25) and 52.3 nM with IL-2Rβ(CD122).

B15: IL-2 mutant G438P7 (ligand)
chain: APTSSSTRKTQLQLEHLLLDLQMILNGINNYKNPKLTEMLEFKFYMPWKATELKHLQCLEEELKPLEEVLNLAQSKNFHLRPRDLISNINVIVLELKGSETTFMCEYADETATIVEFLNRWITFAQSIISTLT
notes: also called GP7
Consider B15, for which the figures for the Kd with IL-2Rβ/γ receptor, in the assay with IL-2Rα(CD25) and with IL-2Rβ(CD122) were 35.4 nM, 178000 nM and 64.2 nM, respectively.

B16: IL-2 mutant G438P17 (ligand)
chain: APTSSSTRKTQLQLEHLMSDLQMILNGINNYKNPKLTRMLTFKFYMPWKATELKHLQCLEEELKPLEEVLNLAQSKNFHLDTEDLIDNINVIVLELKGSETTFMCEYADETATIVEFLNRWITFAQSIISTLT
notes: also called GP17
Consider B16, for which the dissociation constant Kd with IL-2Rα(CD25) is 94.9 nM; in the assay with IL-2Rβ(CD122) it was 61 nM.

B17: IL-2 mutant G438P1 (ligand)
chain: APTSSSTRKTQLQLEHLMSDLQMILNGINNYKNPKLTRMLTFKFYMPWKATELKHLQCLEEELKPLEEVLNLAQSKNFHLRPRDLISNINVIVLELKGSETTFMCEYADETATIVEFLNRWITFAQSIISTLT
notes: also called GP1
For B17, the Kd with IL-2Rα(CD25) was 17.9 nM; with IL-2Rβ(CD122), 18.3 nM.

B18: IL-2 mutant G438P15 (ligand)
chain: APTSSSTRKTQLQLEHLMSDLQMILNGINNYKNPKLTEMLEFKFRMPWKATELKHLQCLEEELKPLEEVLNFAQSKNFHLRPRDLISNINVIVLELKGSETTFMCEYADETATIVEFLNRWITFAQSIISTLT
notes: also called GP15
Take B18: the dissociation constant Kd worked out at 136000 nM in the assay with IL-2Rβ/γ receptor, 170 nM with IL-2Rα(CD25) and 87.1 nM with IL-2Rβ(CD122).

These data come from US20250154217A1 (ZONHON BIOPHARMA INSTITUTE, published 2025).
